This is an account of results in patent publication US7022496.

The assay deals with catalytic subunit of the cellular DNA-dependent protein kinase (human) (UniProt P78527). As to the kind of experiment: cell-based or functional assay.
UniProt P78527, sequence (P78527 whole entry): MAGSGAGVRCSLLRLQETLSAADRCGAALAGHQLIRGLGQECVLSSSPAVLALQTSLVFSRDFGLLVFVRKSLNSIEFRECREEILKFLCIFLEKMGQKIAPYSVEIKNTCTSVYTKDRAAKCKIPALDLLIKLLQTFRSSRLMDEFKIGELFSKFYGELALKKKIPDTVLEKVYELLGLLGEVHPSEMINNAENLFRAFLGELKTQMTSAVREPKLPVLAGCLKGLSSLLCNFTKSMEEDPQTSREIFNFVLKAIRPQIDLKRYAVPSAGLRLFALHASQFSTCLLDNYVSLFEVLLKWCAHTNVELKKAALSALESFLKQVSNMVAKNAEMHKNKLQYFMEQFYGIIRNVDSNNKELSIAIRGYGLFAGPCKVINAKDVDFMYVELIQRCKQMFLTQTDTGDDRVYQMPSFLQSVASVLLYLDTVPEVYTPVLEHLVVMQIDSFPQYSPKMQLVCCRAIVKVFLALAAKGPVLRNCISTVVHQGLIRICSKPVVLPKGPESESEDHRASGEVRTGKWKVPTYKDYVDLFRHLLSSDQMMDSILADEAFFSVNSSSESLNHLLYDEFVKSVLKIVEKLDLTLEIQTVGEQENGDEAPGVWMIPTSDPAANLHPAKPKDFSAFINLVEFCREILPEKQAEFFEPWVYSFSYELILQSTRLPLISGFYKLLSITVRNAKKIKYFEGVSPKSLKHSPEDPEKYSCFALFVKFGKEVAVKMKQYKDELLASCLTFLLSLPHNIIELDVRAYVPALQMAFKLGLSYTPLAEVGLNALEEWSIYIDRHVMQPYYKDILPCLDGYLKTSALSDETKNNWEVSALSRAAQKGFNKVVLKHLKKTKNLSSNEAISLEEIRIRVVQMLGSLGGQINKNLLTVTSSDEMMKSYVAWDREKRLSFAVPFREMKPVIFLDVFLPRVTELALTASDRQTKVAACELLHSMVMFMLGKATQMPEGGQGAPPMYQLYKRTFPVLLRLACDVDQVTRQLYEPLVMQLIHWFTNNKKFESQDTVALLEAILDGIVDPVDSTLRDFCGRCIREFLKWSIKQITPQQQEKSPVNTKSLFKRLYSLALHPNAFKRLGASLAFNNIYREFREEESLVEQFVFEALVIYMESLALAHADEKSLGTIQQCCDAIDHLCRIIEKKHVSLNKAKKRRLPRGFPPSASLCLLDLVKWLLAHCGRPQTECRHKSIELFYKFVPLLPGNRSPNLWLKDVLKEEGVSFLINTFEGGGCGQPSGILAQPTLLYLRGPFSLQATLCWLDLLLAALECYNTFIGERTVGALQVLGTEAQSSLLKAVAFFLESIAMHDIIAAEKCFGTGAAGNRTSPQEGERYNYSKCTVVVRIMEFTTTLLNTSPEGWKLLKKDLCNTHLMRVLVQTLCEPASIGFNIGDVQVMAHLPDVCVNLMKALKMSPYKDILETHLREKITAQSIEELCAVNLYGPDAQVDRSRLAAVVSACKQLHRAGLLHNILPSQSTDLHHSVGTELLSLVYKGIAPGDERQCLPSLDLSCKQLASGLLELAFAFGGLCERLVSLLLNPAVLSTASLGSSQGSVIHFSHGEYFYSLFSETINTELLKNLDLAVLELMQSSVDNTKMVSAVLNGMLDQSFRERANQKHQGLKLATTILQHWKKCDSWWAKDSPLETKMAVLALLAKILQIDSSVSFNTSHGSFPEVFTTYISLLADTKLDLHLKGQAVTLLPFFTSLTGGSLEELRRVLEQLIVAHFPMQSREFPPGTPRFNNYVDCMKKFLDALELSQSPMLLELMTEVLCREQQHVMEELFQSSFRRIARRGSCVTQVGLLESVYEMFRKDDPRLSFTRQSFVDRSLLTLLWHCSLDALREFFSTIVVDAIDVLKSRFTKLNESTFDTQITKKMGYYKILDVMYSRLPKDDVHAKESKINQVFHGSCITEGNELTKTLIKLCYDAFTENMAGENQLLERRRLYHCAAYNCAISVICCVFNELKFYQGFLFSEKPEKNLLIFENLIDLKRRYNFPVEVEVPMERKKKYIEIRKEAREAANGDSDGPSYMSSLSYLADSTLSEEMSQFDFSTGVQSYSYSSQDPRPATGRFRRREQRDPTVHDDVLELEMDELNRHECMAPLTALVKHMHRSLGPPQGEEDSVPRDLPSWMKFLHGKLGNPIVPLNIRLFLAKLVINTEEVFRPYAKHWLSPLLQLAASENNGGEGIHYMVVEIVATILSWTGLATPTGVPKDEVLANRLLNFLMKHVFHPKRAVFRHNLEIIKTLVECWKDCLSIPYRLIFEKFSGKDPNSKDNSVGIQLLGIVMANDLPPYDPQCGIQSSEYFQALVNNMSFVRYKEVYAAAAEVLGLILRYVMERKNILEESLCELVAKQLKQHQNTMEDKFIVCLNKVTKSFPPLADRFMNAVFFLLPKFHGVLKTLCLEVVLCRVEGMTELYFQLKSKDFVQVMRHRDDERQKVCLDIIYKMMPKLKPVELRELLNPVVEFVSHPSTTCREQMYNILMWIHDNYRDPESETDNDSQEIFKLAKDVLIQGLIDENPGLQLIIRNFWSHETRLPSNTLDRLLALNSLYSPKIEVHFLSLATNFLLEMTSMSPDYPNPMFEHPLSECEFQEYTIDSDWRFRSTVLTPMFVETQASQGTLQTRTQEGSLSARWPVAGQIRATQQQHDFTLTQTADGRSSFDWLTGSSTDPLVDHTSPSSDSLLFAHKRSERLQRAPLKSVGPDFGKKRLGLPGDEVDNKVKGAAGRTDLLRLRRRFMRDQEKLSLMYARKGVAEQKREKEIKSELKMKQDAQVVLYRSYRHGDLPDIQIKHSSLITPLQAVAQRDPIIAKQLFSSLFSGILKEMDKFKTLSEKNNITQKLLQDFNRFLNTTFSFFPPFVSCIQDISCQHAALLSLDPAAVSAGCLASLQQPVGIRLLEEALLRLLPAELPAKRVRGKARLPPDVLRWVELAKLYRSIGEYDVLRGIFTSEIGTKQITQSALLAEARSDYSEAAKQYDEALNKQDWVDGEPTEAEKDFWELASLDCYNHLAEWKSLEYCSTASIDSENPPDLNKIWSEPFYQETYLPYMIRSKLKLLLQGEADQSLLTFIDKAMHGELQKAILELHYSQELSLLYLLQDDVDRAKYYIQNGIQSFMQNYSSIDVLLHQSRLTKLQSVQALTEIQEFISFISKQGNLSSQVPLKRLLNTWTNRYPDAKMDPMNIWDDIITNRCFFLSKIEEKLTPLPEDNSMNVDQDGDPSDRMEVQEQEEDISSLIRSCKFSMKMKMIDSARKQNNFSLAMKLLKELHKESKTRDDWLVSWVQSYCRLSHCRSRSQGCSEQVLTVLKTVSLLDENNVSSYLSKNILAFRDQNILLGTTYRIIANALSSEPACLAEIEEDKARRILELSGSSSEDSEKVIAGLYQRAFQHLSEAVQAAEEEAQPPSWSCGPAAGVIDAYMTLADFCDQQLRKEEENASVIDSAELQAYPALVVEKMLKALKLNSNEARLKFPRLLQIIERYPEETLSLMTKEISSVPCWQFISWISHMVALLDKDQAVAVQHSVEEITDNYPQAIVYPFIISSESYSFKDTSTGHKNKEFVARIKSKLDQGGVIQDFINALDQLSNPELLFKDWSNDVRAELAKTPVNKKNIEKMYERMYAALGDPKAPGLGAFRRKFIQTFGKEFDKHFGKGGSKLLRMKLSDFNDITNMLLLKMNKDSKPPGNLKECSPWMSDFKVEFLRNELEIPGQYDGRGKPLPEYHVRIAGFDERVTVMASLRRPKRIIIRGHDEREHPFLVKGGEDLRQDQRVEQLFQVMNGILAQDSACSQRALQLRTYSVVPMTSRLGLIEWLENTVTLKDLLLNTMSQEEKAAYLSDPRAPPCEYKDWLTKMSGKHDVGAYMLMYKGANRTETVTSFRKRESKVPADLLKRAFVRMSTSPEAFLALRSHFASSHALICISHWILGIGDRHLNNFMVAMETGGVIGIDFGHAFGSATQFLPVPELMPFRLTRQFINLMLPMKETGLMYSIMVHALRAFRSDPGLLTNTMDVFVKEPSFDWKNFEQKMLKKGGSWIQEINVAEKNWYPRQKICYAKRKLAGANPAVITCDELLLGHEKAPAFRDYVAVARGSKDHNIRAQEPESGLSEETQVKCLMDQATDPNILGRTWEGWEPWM

adenovirus E4 34k protein (product of early region 4 ORF6), expressed from plasmid OE6.5 as a fusion with a c-myc epitope, sequence (P03239 whole entry, the tested form may be a part): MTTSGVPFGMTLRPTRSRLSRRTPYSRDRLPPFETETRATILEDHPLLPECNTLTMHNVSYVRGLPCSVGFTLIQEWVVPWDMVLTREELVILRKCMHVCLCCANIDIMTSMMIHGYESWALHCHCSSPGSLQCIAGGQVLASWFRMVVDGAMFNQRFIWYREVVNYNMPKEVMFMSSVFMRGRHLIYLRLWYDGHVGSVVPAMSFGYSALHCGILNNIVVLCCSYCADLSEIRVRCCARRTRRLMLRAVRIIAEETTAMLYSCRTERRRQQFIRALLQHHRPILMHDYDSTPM

As for “adenovirus E4 34k protein (product of early region 4 ORF6), expressed from plasmid OE6.5 as a fusion with a c-myc epitope”, the V(D)J recombination frequency (recombinant formation of substrate plasmid pJH200 in transfected 293 cells) was found to be 5 fold.
